Experiments:
HeLa Kyoto [1] = test: solubility in G1/S (NP-40 vs SDS abundance) (log2 ratio); higher = more soluble; settings: cell cycle stage: G1/S
HeLa Kyoto [2] = test: melting temperature (median over replicates), in situ; higher = more thermally stable
HeLa Kyoto [3] = test: solubility change mitosis vs G1/S (difference of NP-40 vs SDS log2 ratios) (log2 ratio difference); higher = more soluble in mitosis
HeLa Kyoto [4] = test: thermal stability score vs G1/S (z-score of summed log2 fold changes over temperatures); higher = more thermally stable than in G1/S
[5] = cell cycle stage: early G1 (4.5 h after nocodazole release)
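Wherever melting temperature (median over replicates), in situ is given: HeLa Kyoto cells synchronized by double thymidine or nocodazole block, proteins quantified by TMT10plex mass spectrometry, three independent biological replicates.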
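Wherever solubility change mitosis vs G1/S (difference of NP-40 vs SDS log2 ratios) is given: synchronized HeLa Kyoto cells (double thymidine block for G1/S, nocodazole release for mitosis), protein amounts in NP-40 versus SDS lysates quantified by mass spectrometry, three biological replicates.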
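Wherever solubility in G1/S (NP-40 vs SDS abundance) is given: HeLa Kyoto cells arrested at G1/S by double thymidine block, proteins quantified by TMT10plex mass spectrometry in mild NP-40 versus SDS extracts, three biological replicates.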
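Wherever thermal stability score vs G1/S (z-score of summed log2 fold changes over temperatures) is given: synchronized HeLa Kyoto cells, proteins quantified by TMT10plex mass spectrometry, three biological replicates, mitosis taken 0.5 h after nocodazole release, G1/S directly after double thymidine block.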

Chain of APTX (chain, as listed by the source): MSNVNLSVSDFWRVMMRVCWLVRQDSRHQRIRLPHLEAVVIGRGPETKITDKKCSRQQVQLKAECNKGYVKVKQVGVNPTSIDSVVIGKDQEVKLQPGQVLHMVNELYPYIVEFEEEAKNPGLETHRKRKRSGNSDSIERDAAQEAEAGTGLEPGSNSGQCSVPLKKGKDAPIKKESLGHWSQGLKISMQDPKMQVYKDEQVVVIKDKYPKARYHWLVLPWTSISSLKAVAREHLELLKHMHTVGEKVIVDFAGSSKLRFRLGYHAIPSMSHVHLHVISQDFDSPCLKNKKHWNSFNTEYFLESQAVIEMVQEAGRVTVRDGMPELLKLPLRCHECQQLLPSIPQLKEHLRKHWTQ
Chain of EZH2 (chain, as listed by the source): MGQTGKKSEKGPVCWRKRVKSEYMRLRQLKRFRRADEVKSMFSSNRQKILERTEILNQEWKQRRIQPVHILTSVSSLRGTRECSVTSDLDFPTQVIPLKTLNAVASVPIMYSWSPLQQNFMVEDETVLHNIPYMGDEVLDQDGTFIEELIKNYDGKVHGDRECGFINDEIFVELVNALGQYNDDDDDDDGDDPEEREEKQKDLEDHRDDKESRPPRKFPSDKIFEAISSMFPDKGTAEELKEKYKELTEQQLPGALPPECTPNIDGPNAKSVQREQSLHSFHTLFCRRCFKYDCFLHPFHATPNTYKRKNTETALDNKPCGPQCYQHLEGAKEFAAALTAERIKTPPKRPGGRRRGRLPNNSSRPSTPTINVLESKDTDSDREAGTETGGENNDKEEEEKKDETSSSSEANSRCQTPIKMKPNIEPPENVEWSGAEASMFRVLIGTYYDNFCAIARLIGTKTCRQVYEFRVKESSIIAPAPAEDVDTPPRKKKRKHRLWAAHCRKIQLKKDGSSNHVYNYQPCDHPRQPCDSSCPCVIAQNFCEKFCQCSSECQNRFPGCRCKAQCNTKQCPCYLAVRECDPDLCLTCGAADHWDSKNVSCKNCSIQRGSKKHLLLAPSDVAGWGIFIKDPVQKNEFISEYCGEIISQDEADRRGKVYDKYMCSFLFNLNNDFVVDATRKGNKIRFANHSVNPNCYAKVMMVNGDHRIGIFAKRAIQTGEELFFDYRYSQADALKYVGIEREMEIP
Chain of PRRC2B (chain, as listed by the source): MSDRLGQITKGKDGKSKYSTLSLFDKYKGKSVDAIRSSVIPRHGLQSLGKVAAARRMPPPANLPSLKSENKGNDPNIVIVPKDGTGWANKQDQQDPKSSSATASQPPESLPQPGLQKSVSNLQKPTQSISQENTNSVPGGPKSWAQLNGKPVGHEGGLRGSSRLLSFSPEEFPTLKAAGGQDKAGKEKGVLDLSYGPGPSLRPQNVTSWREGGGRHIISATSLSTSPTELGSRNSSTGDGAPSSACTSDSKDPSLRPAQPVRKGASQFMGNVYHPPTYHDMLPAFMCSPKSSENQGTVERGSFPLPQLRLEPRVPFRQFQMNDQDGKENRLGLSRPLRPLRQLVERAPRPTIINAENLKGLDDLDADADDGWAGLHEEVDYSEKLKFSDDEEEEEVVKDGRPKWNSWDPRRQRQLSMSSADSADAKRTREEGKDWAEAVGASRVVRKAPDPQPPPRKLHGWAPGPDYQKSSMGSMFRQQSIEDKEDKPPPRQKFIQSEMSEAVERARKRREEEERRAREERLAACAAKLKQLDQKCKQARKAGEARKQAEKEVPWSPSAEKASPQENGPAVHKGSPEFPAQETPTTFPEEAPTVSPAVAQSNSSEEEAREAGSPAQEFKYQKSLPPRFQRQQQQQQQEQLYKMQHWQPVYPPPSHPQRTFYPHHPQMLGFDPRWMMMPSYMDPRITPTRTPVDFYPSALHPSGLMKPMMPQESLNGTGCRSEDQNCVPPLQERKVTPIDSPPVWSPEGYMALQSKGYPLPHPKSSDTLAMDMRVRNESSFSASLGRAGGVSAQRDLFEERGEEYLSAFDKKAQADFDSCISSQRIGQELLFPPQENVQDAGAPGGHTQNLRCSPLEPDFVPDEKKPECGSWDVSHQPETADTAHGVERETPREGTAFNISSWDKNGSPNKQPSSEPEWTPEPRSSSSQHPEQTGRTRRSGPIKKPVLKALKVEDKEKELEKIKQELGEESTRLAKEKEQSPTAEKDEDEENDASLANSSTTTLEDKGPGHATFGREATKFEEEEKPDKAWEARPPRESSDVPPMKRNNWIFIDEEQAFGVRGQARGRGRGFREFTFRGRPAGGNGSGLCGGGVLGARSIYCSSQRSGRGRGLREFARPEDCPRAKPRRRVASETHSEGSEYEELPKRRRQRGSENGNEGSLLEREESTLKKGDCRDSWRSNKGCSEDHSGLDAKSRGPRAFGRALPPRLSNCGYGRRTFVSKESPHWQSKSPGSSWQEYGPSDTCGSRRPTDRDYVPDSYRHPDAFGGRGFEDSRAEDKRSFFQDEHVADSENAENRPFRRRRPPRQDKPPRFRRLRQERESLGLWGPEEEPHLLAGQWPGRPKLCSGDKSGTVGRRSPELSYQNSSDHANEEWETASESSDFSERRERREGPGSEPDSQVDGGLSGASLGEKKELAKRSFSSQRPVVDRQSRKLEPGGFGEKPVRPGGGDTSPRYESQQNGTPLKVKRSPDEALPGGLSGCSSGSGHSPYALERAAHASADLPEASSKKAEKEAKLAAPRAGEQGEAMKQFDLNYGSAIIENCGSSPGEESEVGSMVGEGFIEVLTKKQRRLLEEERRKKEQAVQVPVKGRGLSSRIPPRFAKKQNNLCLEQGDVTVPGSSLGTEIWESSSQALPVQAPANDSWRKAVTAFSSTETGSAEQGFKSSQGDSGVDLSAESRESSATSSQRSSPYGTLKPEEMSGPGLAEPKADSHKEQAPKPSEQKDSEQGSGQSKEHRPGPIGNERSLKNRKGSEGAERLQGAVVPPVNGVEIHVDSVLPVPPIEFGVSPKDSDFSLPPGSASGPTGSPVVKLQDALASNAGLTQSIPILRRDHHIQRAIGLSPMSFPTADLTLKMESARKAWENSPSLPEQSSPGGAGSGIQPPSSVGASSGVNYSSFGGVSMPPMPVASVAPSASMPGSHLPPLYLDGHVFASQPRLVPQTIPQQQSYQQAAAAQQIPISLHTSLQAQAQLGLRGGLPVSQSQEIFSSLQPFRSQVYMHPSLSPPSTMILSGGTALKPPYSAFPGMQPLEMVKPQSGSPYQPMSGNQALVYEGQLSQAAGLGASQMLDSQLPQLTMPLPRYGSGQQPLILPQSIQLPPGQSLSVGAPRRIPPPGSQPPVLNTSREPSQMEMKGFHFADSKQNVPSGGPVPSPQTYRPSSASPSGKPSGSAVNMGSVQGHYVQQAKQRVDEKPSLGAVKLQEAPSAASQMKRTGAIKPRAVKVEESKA

Row | Substance | solubility in G1/S (log2) (HeLa Kyoto [1]) | melting temperature (HeLa Kyoto [2]; cell cycle stage: G1/S) | melting temperature (HeLa Kyoto [2]; cell cycle stage: mitosis) | solubility change mitosis (log2) (HeLa Kyoto [3]) | thermal stability score (HeLa Kyoto [4]; [5]) | thermal stability score (HeLa Kyoto [4]; cell cycle stage: mitosis)
1 | MALQVELVPTGEIIRVVHPHRPCKLALGSDGVRVTMESALTARDRVGVQDFVLLENFTSEAAFIENLRRRFRENLIYTYIGPVLVSVNPYRDLQIYSRQHMERYRGVSFYEVPPHLFAVADTVYRALRTERRDQAVMISGESGAGKTEATKRLLQFYAETCPAPERGGAVRDRLLQSNPVLEAFGNAKTLRNDNSSRFGKYMDVQFDFKGAPVGGHILSYLLEKSRVVHQNHGERNFHIFYQLLEGGEEETLRRLGLERNPQSYLYLVKGQCAKVSSINDKSDWKVVRKALTVIDFTEDEVEDLLSIVASVLHLGNIHFAANEESNAQVTTENQLKYLTRLLSVEGSTLREALTHRKIIAKGEELLSPLNLEQAAYARDALAKAVYSRTFTWLVGKINRSLASKDVESPSWRSTTVLGLLDIYGFEVFQHNSFEQFCINYCNEKLQQLFIELTLKSEQEEYEAEGIAWEPVQYFNNKIICDLVEEKFKGIISILDEECLRPGEATDLTFLEKLEDTVKHHPHFLTHKLADQRTRKSLGRGEFRLLHYAGEVTYSVTGFLDKNNDLLFRNLKETMCSSKNPIMSQCFDRSELSDKKRPETVATQFKMSLLQLVEILQSKEPAYVRCIKPNDAKQPGRFDEVLIRHQVKYLGLLENLRVRRAGFAYRRKYEAFLQRYKSLCPETWPTWAGRPQDGVAVLVRHLGYKPEEYKMGRTKIFIRFPKTLFATEDALEVRRQSLATKIQAAWRGFHWRQKFLRVKRSAICIQSWWRGTLGRRKAAKRKWAAQTIRRLIRGFVLRHAPRCPENAFFLDHVRTSFLLNLRRQLPQNVLDTSWPTPPPALREASELLRELCIKNMVWKYCRSISPEWKQQLQQKAVASEIFKGKKDNYPQSVPRLFISTRLGTDEISPRVLQALGSEPIQYAVPVVKYDRKGYKPRSRQLLLTPNAVVIVEDAKVKQRIDYANLTGISVSSLSDSLFVLHVQRADNKQKGDVVLQSDHVIETLTKTALSANRVNSININQGSITFAGGPGRDGTIDFTPGSELLITKAKNGHLAVVAPRLNSR [MYO1C] | -0.972 | 50.1 °C | 50.2 °C | -0.0879 | -1.1 | 3.69
2 | MGTVHARSLEPLPSSGPDFGGLGEEAEFVEVEPEAKQEILENKDVVVQHVHFDGLGRTKDDIIICEIGDVFKAKNLIEVMRKSHEAREKLLRLGIFRQVDVLIDTCQGDDALPNGLDVTFEVTELRRLTGSYNTMVGNNEGSMVLGLKLPNLLGRAEKVTFQFSYGTKETSYGLSFFKPRPGNFERNFSVNLYKVTGQFPWSSLRETDRGMSAEYSFPIWKTSHTVKWEGVWRELGCLSRTASFAVRKESGHSLKSSLSHAMVIDSRNSSILPRRGALLKVNQELAGYTGGDVSFIKEDFELQLNKQLIFDSVFSASFWGGMLVPIGDKPSSIADRFYLGGPTSIRGFSMHSIGPQSEGDYLGGEAYWAGGLHLYTPLPFRPGQGGFGELFRTHFFLNAGNLCNLNYGEGPKAHIRKLAECIRWSYGAGIVLRLGNIARLELNYCVPMGVQTGDRICDGVQFGAGIRFL [SAMM50] | -0.348 | 56.1 °C | 54.6 °C | -0.0834 | -2.61 | -4.33
3 | MTSGATRYRLSCSLRGHELDVRGLVCCAYPPGAFVSVSRDRTTRLWAPDSPNRSFTEMHCMSGHSNFVSCVCIIPSSDIYPHGLIATGGNDHNICIFSLDSPMPLYILKGHKNTVCSLSSGKFGTLLSGSWDTTAKVWLNDKCMMTLQGHTAAVWAVKILPEQGLMLTGSADKTVKLWKAGRCERTFSGHEDCVRGLAILSETEFLSCANDASIRRWQITGECLEVYYGHTNYIYSISVFPNCRDFVTTAEDRSLRIWKHGECAQTIRLPAQSIWCCCVLDNGDIVVGASDGIIRVFTESEDRTASAEEIKAFEKELSHATIDSKTGDLGDINAEQLPGREHLNEPGTREGQTRLIRDGEKVEAYQWSVSEGRWIKIGDVVGSSGANQQTSGKVLYEGKEFDYVFSIDVNEGGPSYKLPYNTSDDPWLTAYNFLQKNDLNPMFLDQVAKFIIDNTKGQMLGLGNPSFSDPFTGGGRYVPGSSGSSNTLPTADPFTGAGRYVPGSASMGTTMAGVDPFTGNSAYRSAASKTMNIYFPKKEAVTFDQANPTQILGKLKELNGTAPEEKKLTEDDLILLEKILSLICNSSSEKPTVQQLQILWKAINCPEDIVFPALDILRLSIKHPSVNENFCNEKEGAQFSSHLINLLNPKGKPANQLLALRTFCNCFVGQAGQKLMMSQRESLMSHAIELKSGSNKNIHIALATLALNYSVCFHKDHNIEGKAQCLSLISTILEVVQDLEATFRLLVALGTLISDDSNAVQLAKSLGVDSQIKKYSSVSEPAKVSECCRFILNLL [PLAA] | -0.0389 | 49.5 °C | 50 °C | -0.198 | 1.32 | 1.3
4 | MAVETLSPDWEFDRVDDGSQKIHAEVQLKNYGKFLEEYTSQLRRIEDALDDSIGDVWDFNLDPIALKLLPYEQSSLLELIKTENKVLNKVITVYAALCCEIKKLKYEAETKFYNGLLFYGEGATDASMVEGDCQIQMGRFISFLQELSCFVTRCYEVVMNVVHQLAALYISNKIAPKIIETTGVHFQTMYEHLGELLTVLLTLDEIIDNHITLKDHWTMYKRLLKSVHHNPSKFGIQEEKLKPFEKFLLKLEGQLLDGMIFQACIEQQFDSLNGGVSVSKNSTFAEEFAHSIRSIFANVEAKLGEPSEIDQRDKYVGICGLFVLHFQIFRTIDKKFYKSLLDICKKVPAITLTANIIWFPDNFLIQKIPAAAKLLDRKSLQAIKIHRDTFLQQKAQSLTKDVQSYYVFVSSWMMKMESILSKEQRMDKFAEDLTNRCNVFIQGFLYAYSISTIIKTTMNLYMSMQKPMTKTSVKALCRLVELLKAIEHMFYRRSMVVADSVSHITQHLQHQALHSISVAKKRVISDKKYSEQRLDVLSALVLAENTLNGPSTKQRRLIVSLALSVGTQMKTFKDEELFPLQVVMKKLDLISELRERVQTQCDCCFLYWHRAVFPIYLDDVYENAVDAARLHYMFSALRDCVPAMMHARHLESYEILLDCYDKEIMEILNEHLLDKLCKEIEKDLRLSVHTHLKLDDRNPFKVGMKDLALFFSLNPIRFFNRFIDIRAYVTHYLDKTFYNLTTVALHDWATYSEMRNLATQRYGLVMTEAHLPSQTLEQGLDVLEIMRNIHIFVSRYLYNLNNQIFIERTSNNKHLNTINIRHIANSIRTHGTGIMNTTVNFTYQFLKKKFYIFSQFMYDEHIKSRLIKDIRFFREIKDQNDHKYPFDRAEKFNRGIRKLGVTPEGQSYLDQFRQLISQIGNAMGYVRMIRSGGLHCSSNAIRFVPDLEDIVNFEELVKEEGLAEETLKAARHLDSVLSDHTRNSAEGTEYFKMLVDVFAPEFRRPKNIHLRNFYIIVPPLTLNFVEHSISCKEKLNKKNKIGAAFTDDGFAMGVAYILKLLDQYREFDSLHWFQSVREKYLKEIRAVAKQQNVQSASQDEKLLQTMNLTQKRLDVYLQEFELLYFSLSSARIFFRADKTAAEENQEKKEKEEETKTSNGDLSDSTVSADPVVK [KIAA1033] | -0.393 | 49.7 °C | 49.7 °C | -0.0953 | 0.475 | 0.963
5 | MEALSRAGQEMSLAALKQHDPYITSIADLTGQVALYTFCPKANQWEKTDIEGTLFVYRRSASPYHGFTIVNRLNMHNLVEPVNKDLEFQLHEPFLLYRNASLSIYSIWFYDKNDCHRIAKLMADVVEEETRRSQQAARDKQSPSQANGCSDHRPIDILEMLSRAKDEYERNQMGDSNISSPGLQPSTQLSNLGSTETLEEMPSGSQDKSAPSGHKHLTVEELFGTSLPKEQPAVVGLDSEEMERLPGDASQKEPNSFLPFPFEQLGGAPQSETLGVPSAAHHSVQPEITTPVLITPASITQSNEKHAPTYTIPLSPVLSPTLPAEAPTAQVPPSLPRNSTMMQAVKTTPRQRSPLLNQPVPELSHASLIANQSPFRAPLNVTNTAGTSLPSVDLLQKLRLTPQHDQIQTQPLGKGAMVASFSPAAGQLATPESFIEPPSKTAAARVAASASLSNMVLAPLQSMQQNQDPEVFVQPKVLSSAIPVAGAPLVTATTTAVSSVLLAPSVFQQTVTRSSDLERKASSPSPLTIGTPESQRKPSIILSKSQLQDTLIHLIKNDSSFLSTLHEVYLQVLTKNKDNHNL [DCP1A] | 0.265 | 50.5 °C | 50.9 °C | -0.0577 | -0.228 | 1.27
6 | PRRC2B | -0.236 | 51.9 °C | 52.2 °C | 0.078 | 1.22 | 3.15
7 | MTANRLAESLLALSQQEELADLPKDYLLSESEDEGDNDGERKHQKLLEAISSLDGKNRRKLAERSEASLKVSEFNVSSEGSGEKLVLADLLEPVKTSSSLATVKKQLSRVKSKKTVELPLNKEEIERIHREVAFNKTAQVLSKWDPVVLKNRQAEQLVFPLEKEEPAIAPIEHVLSGWKARTPLEQEIFNLLHKNKQPVTDPLLTPVEKASLRAMSLEEAKMRRAELQRARALQSYYEAKARREKKIKSKKYHKVVKKGKAKKALKEFEQLRKVNPAAALEELEKIEKARMMERMSLKHQNSGKWAKSKAIMAKYDLEARQAMQEQLSKNKELTQKLQVASESEEEEGGTEDVEELLVPDVVNEVQMNADGPNPWMLRSCTSDTKEAATQEDPEQLPELEAHGVSESEGEERPVAEEEILLREFEERRSLRKRSELSQDAEPAGSQETKDSGSQEVLSELRVLSQKLKENHQSRKQKASSEGTIPQVQREEPAPEEEEPLLLQRPERVQTLEELEELGKEECFQNKELPRPVLEGQQSERTPNNRPDAPKEKKKKEQMIDLQNLLTTQSPSVKSLAVPTIEELEDEEERNHRQMIKEAFAGDDVIRDFLKEKREAVEASKPKDVDLTLPGWGEWGGVGLKPSAKKRRRFLIKAPEGPPRKDKNLPNVIINEKRNIHAAAHQVRVLPYPFTHHWQFERTIQTPIGSTWNTQRAFQKLTTPKVVTKPGHIINPIKAEDVGYRSSSRSDLSVIQRNPKRITTRHKKQLKKCSVD [UTP14A] | -1.64 | 53 °C | 52.8 °C | 0.895 | -4.25 | -2.2
8 | APTX | -0.219 | 48.5 °C | 50.7 °C | 0.0501 | 0.58 | 1.59
9 | EZH2 | -0.621 | 49 °C | 49.9 °C | 0.156 | 2.26 | 4
10 | UBR4 | -0.243 | 51.3 °C | 50.4 °C | -0.163 | -0.403 | 0.0628

— the supplement of paper PMC5998384
